Assay results taken from paper PMC3493496, “Mechanism of Selective VEGF-A Binding by Neuropilin-1 Reveals a Basis for Specific Ligand Inhibition” (PLoS ONE, 2012).
Several values for one entry are separate records, joined by “and”; a condition that tells them apart may be missing. Identical values can stand only once. No end group written: not given here.

T1: AP-fusion of full length Sema3F (AP-Sema3F; residues 20-779) (UniProt Q13275 20-779)
T1 construct: source: CHO cells, large-scale transient transfection from pAPtag-5
T1 sequence (looked up): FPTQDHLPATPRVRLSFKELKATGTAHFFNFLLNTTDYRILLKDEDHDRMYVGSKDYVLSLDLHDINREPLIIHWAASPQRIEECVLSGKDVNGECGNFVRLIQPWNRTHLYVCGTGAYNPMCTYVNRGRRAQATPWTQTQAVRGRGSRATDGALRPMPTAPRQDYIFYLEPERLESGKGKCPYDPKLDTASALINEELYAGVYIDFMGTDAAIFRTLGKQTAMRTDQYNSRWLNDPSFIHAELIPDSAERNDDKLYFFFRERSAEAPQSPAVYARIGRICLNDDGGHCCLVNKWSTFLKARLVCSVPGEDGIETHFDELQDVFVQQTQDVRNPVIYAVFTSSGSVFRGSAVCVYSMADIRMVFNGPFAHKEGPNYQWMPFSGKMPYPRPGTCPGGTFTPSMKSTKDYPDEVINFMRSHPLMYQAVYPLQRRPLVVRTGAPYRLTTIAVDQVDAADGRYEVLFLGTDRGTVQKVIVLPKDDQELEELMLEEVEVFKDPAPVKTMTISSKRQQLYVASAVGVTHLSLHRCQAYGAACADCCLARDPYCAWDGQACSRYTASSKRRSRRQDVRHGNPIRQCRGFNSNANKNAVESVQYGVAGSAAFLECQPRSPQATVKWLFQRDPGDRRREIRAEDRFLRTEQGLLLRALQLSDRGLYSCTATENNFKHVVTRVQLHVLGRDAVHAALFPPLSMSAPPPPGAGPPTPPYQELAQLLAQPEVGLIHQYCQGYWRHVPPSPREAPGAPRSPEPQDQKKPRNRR

T2: AP-fusion of the Sema3F Ig and basic domains (AP-Sema3F-Ig-basic; residues 605-779) (UniProt Q13275 605-779)
T2 construct: semaphorin 3F (Sema3F), Ig and basic domains, residues 605-779; source: CHO cells, large-scale transient transfection from pAPtag-5
T2 sequence (looked up): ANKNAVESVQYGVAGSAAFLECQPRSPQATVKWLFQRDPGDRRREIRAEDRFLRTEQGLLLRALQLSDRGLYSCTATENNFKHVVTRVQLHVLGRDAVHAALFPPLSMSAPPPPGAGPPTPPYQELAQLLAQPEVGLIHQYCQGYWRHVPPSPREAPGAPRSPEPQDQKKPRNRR

B1: Nrp1 b1b2 domains (human neuropilin-1) (domain or fragment, UniProt O14786 274-586, looked up)
chain: KCMEALGMESGEIHSDQITASSQYSTNWSAERSRLNYPENGWTPGEDSYREWIQVDLGLLRFVTAVGTQGAISKETKKKYYVKTYKIDVSSNGEDWITIKEGNKPVLFQGNTNPTDVVVAVFPKPLITRFVRIKPATWETGISMRFEVYGCKITDYPCSGMLGMVSGLISDSQITSSNQGDRNWMPENIRLVTSRSGWALPPAPHSYINEWLQIDLGEEKIVRGIIIQGGKHRENKVFMRKFKIGYSNNGSDWKMIMDDSKRKAKSFEGNNNYDTPELRTFPALSTRFIRIYPERATHGGLGLRMELLGCEVE
notes: neuropilin-1 (Nrp1), human, b1b2 coagulation factor domains; Limits of the b1b2 construct are in the cited earlier work; about residues 273-586 as I recall; also called soluble Nrp1; wild-type Nrp1
B2: Nrp2 b1b2 domains (human neuropilin-2) (domain or fragment, UniProt O60462 276-595, looked up)
chain: QCNVPLGMESGRIANEQISASSTYSDGRWTPQQSRLHGDDNGWTPNLDSNKEYLQVDLRFLTMLTAIATQGAISRETQNGYYVKSYKLEVSTNGEDWMVYRHGKNHKVFQANNDATEVVLNKLHAPLLTRFVRIRPQTWHSGIALRLELFGCRVTDAPCSNMLGMLSGLIADSQISASSTQEYLWSPSAARLVSSRSGWFPRIPQAQPGEEWLQVDLGTPKTVKGVIIQGARGGDSITAVEARAFVRKFKVSYSLNGKDWEYIQDPRTQQPKLFEGNMHYDTPDIRRFDPIPAQYVRVYPERWSPAGIGMRLEVLGCDWT
notes: neuropilin-2 (Nrp2), human, b1b2 coagulation factor domains; Limits of the b1b2 construct are in the cited earlier work; also called soluble Nrp2; wild-type Nrp2
B3: C-furSema3F (peptide of the C-terminal basic domain of furin processed Sema3F; residues 740-779) (peptide, UniProt Q13275 740-779, looked up)
peptide: GLIHQYCQGYWRHVPPSPREAPGAPRSPEPQDQKKPRNRR
modifications: also: dimer via intermolecular disulfide (oxidized)
notes: semaphorin 3F (Sema3F), C-terminal basic domain of the furin processed form, residues 740-779; source: synthetic peptide (LifeTein, South Plainfield, NJ), oxidized and purified
B4: C-furSema3A (peptide of the C-terminal basic domain of furin processed Sema3A; residues 718-769) (peptide, UniProt Q14563 718-769, looked up)
peptide: MDEFCEQVWKRDRKQRRQRPGHTPGNSNKWKHLQENKKGRNRRTHEFERAPR
modifications: also: dimer via intermolecular disulfide (oxidized)
notes: semaphorin 3A (Sema3A), C-terminal basic domain of the furin processed form, residues 718-769; source: synthetic peptide (Neo-Peptide, Cambridge, MA), oxidized and purified

target: AP-fusion of VEGF-A164 (AP-VEGF-A); assay: AP-fusion solid-phase plate binding assay (competition); Nrp1 b1b2 adsorbed on 96 well plates (2.5 ng/µl, low density); soluble Nrp titrated with AP-VEGF-A (155 µmole p-NPP hydrolyzed/min/L) in 20 mM Tris pH 7.5, 300 mM NaCl, 1 hr at 25°C; retained AP activity read at 405 nm; whether AP-VEGF-A was purified is not given; conditions: not given

In the case of B1, the IC50 is reported as 1600 nM and 2000 nM.
In the case of B2, the IC50 is reported as 120000 nM and 160000 nM and 200000 nM.

target: B1; assay: AP-fusion solid-phase plate binding assay (competition); C-furSema peptides titrated with AP-VEGF-A (100 µmole p-NPP hydrolyzed/min/L) in incubation buffer on low density Nrp1 affinity plates, 1 h at 25°C; pair: peptide and adsorbed Nrp1; conditions: both partners purified

In order of rising IC50:
1. B3  22 nM
2. B4  67 nM

target: VEGF-A165; assay: AP-Nrp binding to VEGF-A affinity plates; conditions: parent: est. 100; read off a plot

In order of rising percent of parent:
1. AP-Nrp1 b1b2, wild-type 299-TN-300 replaced by DGR (TN/DGR)  11%
2. AP-Nrp1 b1b2, wild-type K350Q; K351N; K352G  34%
3. AP-Nrp1 b1b2, wild-type E304Q; R305Q  38%
4. AP-Nrp1 b1b2, wild-type E285R  41%
5. AP-Nrp2 b1b2, wild-type Q307E; Q308R  60%
6. AP-Nrp2 b1b2, wild-type R287E  310%
7. AP-Nrp2 b1b2, wild-type 301-DGR-303 replaced by TN (DGR/TN)  310%
8. AP-Nrp2 b1b2, wild-type Q353K; N354K; G355K  510%

target: AP-fusion of VEGF-A164 (AP-VEGF-A); assay: AP-fusion solid-phase plate binding assay (competition); Nrp1 b1b2 adsorbed on 96 well plates (2.5 ng/µl, low density); soluble Nrp titrated with AP-VEGF-A (155 µmole p-NPP hydrolyzed/min/L) in 20 mM Tris pH 7.5, 300 mM NaCl, 1 hr at 25°C; retained AP activity read at 405 nm; whether AP-VEGF-A was purified is not given; conditions: not given; remark: another data set of the same source

In order of falling IC50:
1. B2  310000 nM
2. B1  1800 nM

target: T1, AP-fusion of full length Sema3F …; assay: AP-fusion solid-phase plate binding assay (competition); low density Nrp1 affinity plates; soluble Nrp1 or Nrp2 combined with AP-Sema3F (648 µmole p-NPP hydrolyzed/min/L) in incubation buffer (20 mM Tris pH 7.5, 300 mM NaCl), 1 h at 25°C; whether AP-Sema3F was purified is not told; conditions: not given

In order of falling IC50:
1. B2  2700 nM
2. B1  2000 nM

target: T2, AP-fusion of the Sema3F Ig and basic …; assay: AP-fusion solid-phase plate binding assay (competition); high density Nrp1 affinity plates (50 ng/µl); soluble Nrp1 or Nrp2 combined with AP-Sema3F-Ig-basic (181 µmole p-NPP hydrolyzed/min/L) in binding buffer (20 mM Tris pH 7.5, 50 mM NaCl), 1 hr at 25°C; whether the AP fusion was purified is not told; conditions: not given

In order of rising IC50:
1. B1  1200 nM
2. B2  6200 nM
